Data on two molecules can be found in patent publication US20240263208A1, “CYTOCHROME P450 ENZYME” (HYPHA DISCOVERY LTD., priority 2021, published 2024).

Common to all, as to type: biochemical
The nature of series [1]: Oxidase activity testing, lyophilised recombinant P450/ferredoxin SeuF08/ferredoxin reductase SCF15A against ambroxide. The note with it: for +16 Da (1.50 min) 253 m/z / +16 Da (1.60 min) 253 m/z / +16 Da (2.04 min) 253 m/z: oxidised ambroxide product; for +16 Da (1.50 min) 253 m/z / +16 Da (1.60 min) 253 m/z / +16 Da (2.04 min) 253 m/z / Ambroxide (2.22 min) 237 m/z: relative MS peak area; for Ambroxide (2.22 min) 237 m/z: remaining substrate, 0.1 mg/ml ambroxide, 27° C., 16-20 hours; for Average % conversion: substrate ambroxide, relative MS peak areas. On the procedure: Lyophilised material of recombinant P450, ferredoxin and ferredoxin reductase proteins was made as described in Example 4 and reconstituted in high purity water to the original volume. Biocatalysis was performed with shaking incubation at 27° C. in the following conditions: 100 mM potassium phosphate pH 8.0, 5 mM MgCl2 (both present in the reconstituted enzyme preparation) and 0.1 mg/ml substrate compound such as ambroxide (Sigma-Aldrich, UK), carbamazepine (Sigma-Aldrich, UK), diclofenac (Sigma-Aldrich, UK), tivantinib (MedChemtronica, Sweden), clarithromycin (Tokyo Chemical Industry, Japan), sclareol (Sigma-Aldrich, UK), celecoxib (LC Laboratories, USA), buparvaquone (Sigma-Aldrich, UK), BIRB796 (MedChemExpress, USA), vanoxerine (CiVentiChem, USA), valsartan (Tokyo Chemical Industry, Japan), ruxolitinib (LC Laboratories, USA), perindopril (Selleckchem, USA), solifenacin (Key Organics, UK), 7-ethoxycoumarin (Tokyo Chemical Industry, Japan), tofacitinib (LC Laboratories, USA), ebastine (Key Organics, UK), efavirenz (Key Organics, UK), propanalol (Sigma-Aldrich, UK) and tolbutamide (Key Organics, UK).
Concentrations of P450, ferredoxin and ferredoxin reductase were as extracted (Example 4). Reactions were initiated by addition of 10× stock of cofactor mixture (50 mM G6P, 10 mM NADP+, 10 UN/ml G6PDH) to provide a final volume of e.g., 10 μl to 90 μl for 100 μl total reaction volumes. After 16-20 hours, reactions were extracted with an equal volume of acetonitrile, centrifuged to remove precipitated proteins and conversion assessed by UPLC-MS analysis.
UPLC Data were Obtained as Follows: • Column: Acquity UPLC BEH Shield RP18 1.7 μm 2.1 mm i.d. 50 mm length • Solvents: H2O, B: Acetonitrile, both with 0.1% Formic acid • Flow rate: 1.0 ml/min • Detector: Waters Acquity UPLC PDA (UV-Vis detection) and Waters Acquity UPLC QDA (MS)
To confirm the identities of reaction products where known, their chromatographic retention time, mass and ultraviolet spectra were compared with those of authentic metabolite standards.
Representative results for the % conversions of ambroxide to oxidised (+16 Da) products for single point mutants at position T109 are shown in Table 2 below.

A short description of series [2]: Oxidase activity testing against sclareol. To be noted: substrate Sclareol; Batch 1; UPLC-MS UV or MS peak areas. In outline: (§1)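 Reconstituted recombinant P450 with ferredoxin and ferredoxin reductase was incubated with 0.1 mg/ml substrate in 100 mM potassium phosphate pH 8.0, 5 mM MgCl2 at 27° C with shaking. Reactions were started with a G6P/NADP+/G6PDH cofactor mix, run 16-20 hours, acetonitrile-quenched, and % conversion measured by UPLC-MS.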

Series [3] can be described thus: Oxidase activity testing against perindopril. To be noted: substrate Perindopril; Batch 1. In outline: as §1
A short description of series [4]: Oxidase activity testing against ebastine. The note with it: substrate Ebastine; Batch 1. In outline:
as §1

Series [5] is described as follows: Oxidase activity testing against tofacitinib. The note with it: substrate Tofacitinib; Batch 1. In outline:
as §1

Series [6] is described as follows: Oxidase activity testing against 7-ethoxycoumarin. The note with it: substrate 7-ethoxycoumarin; Batch 1. In outline:
as §1

Series [7] in a line: Oxidase activity testing against celecoxib. The note with it: substrate Celecoxib; Batch 1. In outline:
as §1

A short description of series [8]: Oxidase activity testing against efavirenz. The note with it: substrate Efavirenz; Batch 1. The procedure, abridged: as §1
Series [9] can be described thus: Oxidase activity testing against tolbutamide. To be noted: for Average % conversion: substrate Tolbutamide, Batch 1. The procedure, abridged: as §1
Series [10] is described as follows: Oxidase activity testing against BIRB796. To be noted: substrate BIRB796; Batch 1. In outline: as §1
Series [11] in a line: Oxidase activity testing against valsartan. The note with it: substrate Valsartan; Batch 1. In outline:
as §1

Series [12] can be described thus: Oxidase activity testing against buparvaquone. To be noted: substrate Buparvaquone; Batch 1. In outline: as §1
The nature of series [13]: Oxidase activity testing against propanalol. The note with it: substrate Propanalol; Batch 1. The procedure, abridged:
as §1

Series [14] in a line: Oxidase activity testing against vanoxerine. The note with it: substrate Vanoxerine; Batch 1. The procedure, abridged: as §1
Series [15] is described as follows: Oxidase activity testing against clarithromycin. The note with it: substrate Clarithromycin; Batch 1. In outline: as §1
Series [16] can be described thus: Oxidase activity testing against solifenacin. To be noted: substrate Solifenacin; Batch 1. The procedure, abridged:
as §1

The nature of series [17]: Oxidase activity testing against ruxolitinib. To be noted: substrate Ruxolitinib; Batch 1. In outline: as §1

B1: SeuC10M25: P450SeuC10 with T109F mutation, SEQ ID NO: 54 (protein)
chain: MKIGTTHLTRLRGLSMTELTDITGPAAQAETVAFPQDRTCPYHPPTGYDPLRDGRPLSRVTLYDGREVWLVTAQATARALLADPRLSTDRRRDGFPVPTPRFAAGRDRFLALLGLDDPEHHRQRRLLIPSFTLKRATAQRPWIQRIVDELLDAMIARGPVADLVSAFALPVPSMVICELLGVPYADHEFFEEQSRRLLRGPTGADTTDARDRLEAYLGDLIDAKAKEAEPGDGILDDLVHNRLRAGELDRSVLVSLAVILLVAGHETTANMISLGTYTLLQHPERLAELRADPSLLPAVVEELLRMLSIAEGLQRLALEDIEIDGITIRAGEGVLFSTSVINRDTAVYEDPDDLDFHRADRHHVAFGFGIHQCLGQNLARAELEIALGSLFTRLPGLRLAAPAEEIPFKPGDTVQGMLELPVTW
modifications: SeuC10M25
As for B1, the “+16 Da (1.50 min) 253 m/z” value in series [1] came out at 52.0%. For the same molecule, the “+16 Da (1.60 min) 253 m/z” value in series [1] is 15.2%. In addition, in series [1], the “+16 Da (2.04 min) 253 m/z” value worked out at 13.9%. Besides, the “reaction products from ambroxide (in words)” value in series [1] (products at 1.50, 1.61 and 2.04 minutes) was “highest yields of the products at 1.61 and 2.04 minutes”. In addition, in series [1], the “Ambroxide (2.22 min) 237 m/z” value turned out to be 18.9%. The Average % conversion in series [1] was 81.1%; in series [2], 55.7%; in [3] it was 23.5%; in series [4], 12.7%; in series [5] it was 21.4%; in [6] it was 17.5%. Also, the Average % conversion in series [7] came to 10.4%; in series [8], 1.5%; in series [9] it was 28.2%; in [10], 13.9%; in [11] it was 15.5%; in series [12], 19.4%. Further, the Average % conversion was 0% in series [13]; 58% in [14]; 0% in series [15]; 2.9% in series [16]; 79.8% in [17].

B2: SeuC10M2: P450SeuC10 with T109A mutation, SEQ ID NO: 8 (protein)
chain: MKIGTTHLTRLRGLSMTELTDITGPAAQAETVAFPQDRTCPYHPPTGYDPLRDGRPLSRVTLYDGREVWLVTAQATARALLADPRLSTDRRRDGFPVPTPRFAAGRDRALALLGLDDPEHHRQRRLLIPSFTLKRATAQRPWIQRIVDELLDAMIARGPVADLVSAFALPVPSMVICELLGVPYADHEFFEEQSRRLLRGPTGADTTDARDRLEAYLGDLIDAKAKEAEPGDGILDDLVHNRLRAGELDRSVLVSLAVILLVAGHETTANMISLGTYTLLQHPERLAELRADPSLLPAVVEELLRMLSIAEGLQRLALEDIEIDGITIRAGEGVLFSTSVINRDTAVYEDPDDLDFHRADRHHVAFGFGIHQCLGQNLARAELEIALGSLFTRLPGLRLAAPAEEIPFKPGDTVQGMLELPVTW
modifications: SeuC10M2
For the molecule B2, in [1], the “+16 Da (1.50 min) 253 m/z” value was found to be 85.1%. Moreover, the “+16 Da (1.60 min) 253 m/z” value in series [1] amounted to 7.0%. The “+16 Da (2.04 min) 253 m/z” value in [1] stood at 0.0%. Also, in [1], the “Ambroxide (2.22 min) 237 m/z” value was found to be 6.8%. The Average % conversion in series [1] is 93.2%; in series [2] it was 36.5%; in series [3], 30.7%; in series [4] it was 6.8%; in series [5], 47.1%; in series [6], 32.4%. Besides, the Average % conversion in series [7] turned out to be 24.7%; in series [8] it was 0.9%; in [9], 52.3%; in series [10], 29.5%; in [11] it was 17.6%; in [12], 28.7%. Moreover, the Average % conversion was 0% in series [13]; 87.2% in series [14]; 0% in series [15]; 7.2% in series [16]; 92.8% in series [17]. Moreover, in series [9], the “conversion of tolbutamide compared to wild-type (in words)” value was “significantly increased conversion”.
